Experimental data taken from publication PMC3257273, “Crystal Structure of a Human Single Domain Antibody Dimer Formed through VH-VH Non-Covalent Interactions” (PLoS ONE, 2012).

Target: T1, human HER2 (ErbB2)/Fc chimera (Homo sapiens, UniProt P04626)
T1 construct: human epidermal growth factor receptor-2 (HER2, ErbB2), the part present in the bought HER2 (ErbB2)/Fc chimera; also called HER2/Fc; human epidermal growth factor receptor-2; source: bought: R&D Systems
Assay: SPR; Biacore 3000; HER2 amine-coupled on CM5 chip (ovalbumin as reference surface); sdAb injected at 5 to 600 nM, 40 uL/min; room temperature; HBS-EP (10 mM HEPES pH 7.4, 150 mM NaCl, 3 mM EDTA, 0.005% P20); 1:1 Langmuir model
Conditions: both partners purified

B1: Gr3 (VHH)
VHH: QVQLVESGGGLIKPGGSLRLSCAASGFTVSYESMGWVRQAPGKGLEWVSAISSSGGSTYYADSVKGRFTISRDNSKNTVYLQMNSLRAEDTAVYYCVTPERQCKQSTCYARPRYWGQGTMVTVSS
notes: differs from Gr6 only in CDR1 and CDR3; selected from a synthetic human VH phage display library; Single-domain antibody from a human VH, not a camelid VHH; the vector may add further C-terminal residues besides the His tag; also called anti-HER2 sdAb Gr3; human VH single-domain antibody; source: E. coli periplasm, purified (IMAC, Ni-NTA / HiTrap chelating HP)
Question: With B1 as the binder, how does the Kd read?
Answer: Its Kd is 68 nM.

Question: And the koff?
Answer: The koff was 0.02 s⁻¹.

Question: And the kon?
Answer: The kon was 290000 M⁻¹ s⁻¹.
